Data reported in the supplement of paper PMC9112550, “Optimization of the antimicrobial peptide Bac7 by deep mutational scanning” (BMC Biology, 2022).

These sequences were tested on Escherichia coli TOP10 (assay: shrunken log2 fold change of peptide-encoding DNA abundance (4.5 h post-induction vs induction); higher = less antimicrobial activity (less host growth inhibition)). Conditions: time post-induction: 4.5 h; library: site-saturation at positions 5, 18, 19, 20.
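Further: peptides expressed intracellularly from a pBAD plasmid library in pooled LB shake-flask culture, induced with 0.3% L-arabinose, DNA abundance read by NGS, three biological replicates, DESeq2 with apeglm shrinkage.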

| Sequence | shrunken log2 fold change |
| --- | --- |
| RRIRWRPPRLPRPRPRPSKAPRP | -0.287 |
| RRIRSRPPRLPRPRPRPGWGPRP | 0.291 |
| RRIRCRPPRLPRPRPRPSIRPRP | -0.608 |
| RRIRYRPPRLPRPRPRPRAQPRP | 0.174 |
| RRIRMRPPRLPRPRPRPSSEPRP | -0.103 |
| RRIRFRPPRLPRPRPRPAYIPRP | -0.601 |
| RRIRSRPPRLPRPRPRPKMVPRP | -0.309 |
| RRIRPRPPRLPRPRPRPKMKPRP | 1.05 |
| RRIRSRPPRLPRPRPRPQFMPRP | -0.274 |
| RRIRLRPPRLPRPRPRPEISPRP | 0.099 |
| RRIRIRPPRLPRPRPRPGPPPRP | 0.221 |
| RRIRERPPRLPRPRPRPAYWPRP | 0.000956 |
| RRIRRRPPRLPRPRPRPQGAPRP | -0.0933 |
| RRIRGRPPRLPRPRPRPKSYPRP | 0.685 |
| RRIRYRPPRLPRPRPRPWFLPRP | -1.18 |
| RRIRSRPPRLPRPRPRPHSRPRP | -0.322 |
| RRIRMRPPRLPRPRPRPSPAPRP | 1.83 |
| RRIRDRPPRLPRPRPRPPIRPRP | 0.173 |
| RRIRPRPPRLPRPRPRPIQHPRP | -0.053 |
| RRIRPRPPRLPRPRPRPHGWPRP | 0.274 |
| RRIRQRPPRLPRPRPRPAHKPRP | -0.0849 |
| RRIRDRPPRLPRPRPRPMRSPRP | -0.00884 |
| RRIRVRPPRLPRPRPRPEYAPRP | 0.111 |
| RRIRNRPPRLPRPRPRPLWYPRP | -0.619 |
| RRIRCRPPRLPRPRPRPYRSPRP | 0.00395 |

| Sequence | shrunken log2 fold change |
| --- | --- |
| RRIRKRPPRLPRPRPRPWFEPRP | 0.0346 |
| RRIRHRPPRLPRPRPRPALCPRP | 0.174 |
| RRIRDRPPRLPRPRPRPYHWPRP | 0.0299 |
| RRIRYRPPRLPRPRPRPTECPRP | -0.0134 |
| RRIRMRPPRLPRPRPRPENCPRP | 0.0159 |
| RRIRMRPPRLPRPRPRPKAFPRP | 0.0392 |
| RRIRLRPPRLPRPRPRPHYIPRP | -0.615 |
| RRIRQRPPRLPRPRPRPYMQPRP | -0.239 |
| RRIRGRPPRLPRPRPRPTVVPRP | 0.41 |
| RRIRHRPPRLPRPRPRPYAAPRP | -0.519 |
| RRIRRRPPRLPRPRPRPNWHPRP | 0.151 |
| RRIRCRPPRLPRPRPRPCFFPRP | 0.392 |
| RRIRDRPPRLPRPRPRPLDAPRP | 0.0602 |
| RRIRLRPPRLPRPRPRPMAQPRP | -0.00088 |
| RRIRARPPRLPRPRPRPTHMPRP | 0.156 |
| RRIRHRPPRLPRPRPRPNPEPRP | -0.00699 |
| RRIRFRPPRLPRPRPRPMDHPRP | -0.131 |
| RRIRVRPPRLPRPRPRPGQDPRP | -0.41 |
| RRIRPRPPRLPRPRPRPVVNPRP | -0.229 |
| RRIRCRPPRLPRPRPRPYWVPRP | -0.528 |
| RRIRCRPPRLPRPRPRPKRFPRP | 0.322 |
| RRIRARPPRLPRPRPRPSCGPRP | 0.287 |
| RRIRFRPPRLPRPRPRPMHEPRP | 0.085 |
| RRIRHRPPRLPRPRPRPGSEPRP | 0.176 |
| RRIRCRPPRLPRPRPRPVEPPRP | -0.0281 |

| Sequence | shrunken log2 fold change |
| --- | --- |
| RRIRQRPPRLPRPRPRPHLLPRP | 0.006 |
| RRIRLRPPRLPRPRPRPNYDPRP | -0.372 |
| RRIRWRPPRLPRPRPRPAMYPRP | -0.112 |
| RRIRFRPPRLPRPRPRPDSKPRP | -0.788 |
| RRIRKRPPRLPRPRPRPLMFPRP | 0.0317 |
| RRIRQRPPRLPRPRPRPCYDPRP | -0.357 |
| RRIRARPPRLPRPRPRPMRKPRP | -0.046 |
| RRIRWRPPRLPRPRPRPRHCPRP | 0.0392 |
| RRIRPRPPRLPRPRPRPGCMPRP | 0.179 |
| RRIRWRPPRLPRPRPRPTFCPRP | 0.478 |
| RRIRQRPPRLPRPRPRPWWAPRP | -0.014 |
| RRIRDRPPRLPRPRPRPVIKPRP | 0.0149 |
| RRIRFRPPRLPRPRPRPMHSPRP | -0.263 |
| RRIRTRPPRLPRPRPRPAAEPRP | 0.351 |
| RRIRIRPPRLPRPRPRPHLKPRP | -0.358 |
| RRIRARPPRLPRPRPRPVYWPRP | 0.141 |
| RRIRNRPPRLPRPRPRPEIEPRP | 0.0339 |
| RRIRPRPPRLPRPRPRPYWKPRP | -0.189 |
| RRIRRRPPRLPRPRPRPDRSPRP | -0.0169 |
| RRIRHRPPRLPRPRPRPYNCPRP | -0.00726 |
| RRIRHRPPRLPRPRPRPRNIPRP | -0.326 |
| RRIRQRPPRLPRPRPRPLAHPRP | -0.0319 |
| RRIRQRPPRLPRPRPRPNPAPRP | 0.17 |
| RRIRDRPPRLPRPRPRPHQIPRP | -0.248 |
| RRIRCRPPRLPRPRPRPRCKPRP | -0.206 |

| Sequence | shrunken log2 fold change |
| --- | --- |
| RRIRMRPPRLPRPRPRPTVLPRP | 0.477 |
| RRIRDRPPRLPRPRPRPIGRPRP | 0.00739 |
| RRIRMRPPRLPRPRPRPCYRPRP | 0.035 |
| RRIRPRPPRLPRPRPRPDMTPRP | -0.293 |
| RRIRDRPPRLPRPRPRPYYAPRP | -0.201 |
| RRIRSRPPRLPRPRPRPRKLPRP | 0.316 |
| RRIRRRPPRLPRPRPRPMGAPRP | 0.658 |
| RRIRCRPPRLPRPRPRPDQAPRP | 0.288 |
| RRIRARPPRLPRPRPRPAVTPRP | 0.214 |
| RRIRTRPPRLPRPRPRPTPTPRP | 0.289 |
| RRIRARPPRLPRPRPRPHTKPRP | 0.0902 |
| RRIRKRPPRLPRPRPRPQQIPRP | -0.248 |
| RRIRVRPPRLPRPRPRPYVAPRP | -0.643 |
| RRIRGRPPRLPRPRPRPLWWPRP | 0.458 |
| RRIRTRPPRLPRPRPRPVPCPRP | -0.0501 |
| RRIRNRPPRLPRPRPRPMHRPRP | -0.0926 |
| RRIRVRPPRLPRPRPRPTCQPRP | -0.035 |
| RRIRTRPPRLPRPRPRPYEHPRP | -0.0707 |
| RRIRVRPPRLPRPRPRPCERPRP | -0.00992 |
| RRIRDRPPRLPRPRPRPRSMPRP | 0.211 |
| RRIRRRPPRLPRPRPRPHEHPRP | -0.153 |
| RRIRCRPPRLPRPRPRPECIPRP | 0.0623 |
| RRIRKRPPRLPRPRPRPTFVPRP | 0.362 |
| RRIRQRPPRLPRPRPRPNGNPRP | -0.405 |
| RRIRERPPRLPRPRPRPFMAPRP | -0.891 |

| Sequence | shrunken log2 fold change |
| --- | --- |
| RRIRPRPPRLPRPRPRPESPPRP | 0.161 |
| RRIRSRPPRLPRPRPRPQMEPRP | 0.0832 |
| RRIRCRPPRLPRPRPRPSSAPRP | -0.278 |
| RRIRERPPRLPRPRPRPRNRPRP | -0.134 |
| RRIRIRPPRLPRPRPRPNFPPRP | -0.144 |
| RRIRDRPPRLPRPRPRPNQQPRP | -0.12 |
| RRIRKRPPRLPRPRPRPFIKPRP | -0.0863 |
| RRIRPRPPRLPRPRPRPRETPRP | 0.574 |
| RRIRERPPRLPRPRPRPLDSPRP | -0.344 |
| RRIRYRPPRLPRPRPRPCHYPRP | -0.00968 |
| RRIRMRPPRLPRPRPRPSGDPRP | 0.839 |
| RRIRIRPPRLPRPRPRPKCGPRP | -0.0309 |
| RRIRWRPPRLPRPRPRPMHKPRP | 0.219 |
| RRIRWRPPRLPRPRPRPYVLPRP | -0.843 |
| RRIRLRPPRLPRPRPRPMLKPRP | -0.295 |
| RRIRVRPPRLPRPRPRPCKNPRP | -0.0206 |
| RRIRLRPPRLPRPRPRPRNGPRP | -0.0949 |
| RRIRLRPPRLPRPRPRPDSTPRP | -0.603 |
| RRIRARPPRLPRPRPRPWFIPRP | -0.502 |
| RRIRQRPPRLPRPRPRPDFDPRP | -0.0668 |
| RRIRNRPPRLPRPRPRPMDSPRP | -0.0507 |
| RRIRPRPPRLPRPRPRPKHQPRP | 0.0315 |
| RRIRCRPPRLPRPRPRPVDCPRP | -0.2 |
| RRIRIRPPRLPRPRPRPRVSPRP | 0.0983 |
| RRIRYRPPRLPRPRPRPNLVPRP | -0.0754 |

| Sequence | shrunken log2 fold change |
| --- | --- |
| RRIRARPPRLPRPRPRPNCFPRP | 0.0761 |
| RRIRVRPPRLPRPRPRPIRAPRP | -0.109 |
| RRIRFRPPRLPRPRPRPCNGPRP | -0.212 |
| RRIRKRPPRLPRPRPRPFSNPRP | -0.411 |
| RRIRLRPPRLPRPRPRPIYSPRP | 0.0408 |
| RRIRNRPPRLPRPRPRPRNMPRP | -0.171 |
| RRIRTRPPRLPRPRPRPNSMPRP | -0.496 |
| RRIRIRPPRLPRPRPRPIEFPRP | -0.0138 |
| RRIRWRPPRLPRPRPRPRNLPRP | 0.0777 |
| RRIRRRPPRLPRPRPRPFSHPRP | -0.0121 |
| RRIRHRPPRLPRPRPRPFMRPRP | -0.42 |
| RRIRRRPPRLPRPRPRPLAVPRP | 0.176 |
| RRIRTRPPRLPRPRPRPPHSPRP | -0.141 |
| RRIRKRPPRLPRPRPRPMHWPRP | 0.136 |
| RRIRTRPPRLPRPRPRPQSFPRP | 0.015 |
| RRIRARPPRLPRPRPRPCTTPRP | 0.184 |
| RRIRRRPPRLPRPRPRPERNPRP | -0.085 |
| RRIRRRPPRLPRPRPRPLVQPRP | 0.355 |
| RRIRKRPPRLPRPRPRPQHLPRP | 0.0344 |
| RRIRRRPPRLPRPRPRPYHPPRP | -0.34 |
| RRIRDRPPRLPRPRPRPRWNPRP | 0.0976 |
| RRIRKRPPRLPRPRPRPIACPRP | 0.104 |
| RRIRIRPPRLPRPRPRPFLAPRP | -0.493 |
| RRIRKRPPRLPRPRPRPCSPPRP | -0.102 |
| RRIRDRPPRLPRPRPRPYLQPRP | -0.0926 |
